Reference: patent publication US20220213196A1 (GRITSTONE BIO, published 2022)
Changes are numbered by the printed parent chain.

B1: scFv R3G8-P5G08 (scFv, V domains shown)
VH: QVQLVQSGAEVKKPGASVKVSCKASGYTFTSNYMHWVRQAPGQGLEWMGWMNPNSGNTGYAQKFQGRVTMTRDTSTSTVYMELSSLRSEDTAVYYCARGLYGDYFLYYGMDVWGQGTTVTVSS
VL: not shown
B2: scFv G8-P1H08 (scFv, V domains shown)
VH: QVQLVQSGAEVKKPGASVKVSCKASGYTFGNYFMHWVRQAPGQGLEWMGMVNPSGGSETFAQKFQGRVTMTRDTSTSTVYMELSSLRSEDTAVYYCAASTWIQPFDYWGQGTLVTVSS
VL: DIQMTQSPSSLSASVGDRVTITCRASQGINSYLAWYQQKPGKAPKLLIYDASNLETGVPSRFSGSGSGTDFTLTISSLQPEDFATYYCQQHNSYPPTFGQGTKLEIK
B3: scFv G8-P1C01 (scFv, V domains shown)
VH: QVQLVQSGAEVKKPGASVKVSCKASGGTFSSHAISWVRQAPGQGLEWMGVIIPSGGTSYTQKFQGRVTMTRDTSTSTVYMELSSLRSEDTAVYYCARGDYYDSSGYYFPVYFDYWGQGTLVTVSS
VL: B2 VL with G28N, N30Y, S31T, A34N, H91A, S93G, Y94F, P96L, Q100G, L104V
B4: scFv G8-P2C11 (scFv, V domains shown)
VH: QVQLVQSGAEVKKPGASVKVSCKASGYTFTSYAMNWVRQAPGQGLEWMGWINPNSGGTNYAQKFQGRVTMTRDTSTSTVYMELSSLRSEDTAVYYCARDPFWSGHYYYYGMDVWGQGTTVTVSS
VL: not shown
B5: scFv G8-P2B05 (scFv, V domains shown)
VH: EVQLLESGGGLVQPGGSLRLSCAASGFDFSIYSMNWVRQAPGKGLEWVSAISGSGGSTYYADSVKGRFTISRDNSKNTLYLQMNSLRAEDTAVYYCASNGNYYGSGSYYNYWGQGTLVTVSS
VL: DIQMTQSPSSLSASVGDRVTITCRASQSISRWLAWYQQKPGKAPKLLIYAASSLQSGVPSRFSGSGSGTDFTLTISSLQPEDFATYYCQQYSTYPITIGQGTKVEIK
B6: scFv R3G8-P5F02 (scFv, V domains shown)
VH: QVQLVQSGAEVKKPGASVKVSCKASGYTFTGYYIHWVRQAPGQGLEWMGVINPSGGSTTYAQKLQGRVTMTRDTSTSTVYMELSSLRSEDTAVYYCARDRDSSWTYYYYGMDVWGQGTTVTVSS
VL: EIVMTQSPATLSVSPGERATLSCRASQSVGNSLAWYQQKPGQAPRLLIYGASTRATGIPARFSGSGSGTEFTLTISSLQSEDFAVYYCQQYGSSPYTFGQGTKVEIK
B7: scFv G8-P1A06 (scFv, V domains shown)
VH: QVQLVQSGAEVKKPGASVKVSCKASGYTFTNYYMHWVRQAPGQGLEWMGWMNPIGGGTGYAQKFQGRVTMTRDTSTSTVYMELSSLRSEDTAVYYCARVYDFWSVLSGFDIWGQGTLVTVSS
VL: DIQMTQSPSSLSASVGDRVTITCRASQAISNSLAWYQQKPGKAPKLLIYAASTLQSGVPSRFSGSGSGTDFTLTISSLQPEDFATYYCGQSYSTPPTFGQGTKLEIK
B8: scFv R3G8-P2E04 (scFv, V domains shown)
VH: QVQLVQSGAEVKKPGSSVKVSCKASGGTFSSYGVSWVRQAPGQGLEWMGWISPYSGNTDYAQKFQGRVTITADESTSTAYMELSSLRSEDTAVYYCARGLYYMDVWGKGTTVTVSS
VL: B2 VL with G28S, N30S, Y32W, H91S, N92Y, Y94T, P96L, Q100G
B9: scFv G8-P1A04 (scFv, V domains shown)
VH: QVQLVQSGAEVKKPGASVKVSCKASGYPFIGQYLHWVRQAPGQGLEWMGIINPSGDSATYAQKFQGRVTMTRDTSTSTVYMELSSLRSEDTAVYYCARDLSYYYGMDVWGQGTTVTVSS
VL: DIQMTQSPSSLSASVGDRVTITCWASQGISSYLAWYQQKPGKAPKLLIYAASSLQSGVPSRFSGSGSGTDFTLTISSLQPEDFATYYCQQSYNTPWTFGPGTKVDIK
B10: scFv R3G8-P4F05 (scFv, V domains shown)
VH: B1 VH with T30S, S31N, N32M, M34L, M51I, S55T, N57D, G59N, K63T, T118K
VL: B7 VL with A28G, S32Y, G89Q, P96L, Q100G, L104V
B11: scFv R3G8-P2C10 (scFv, V domains shown)
VH: QVQLVQSGAEVKKPGASVKVSCKASGYTFTSYYMHWVRQAPGQGLEWMGWINPYSGGTNYAQKFQGRVTMTRDTSTSTVYMELSSLRSEDTAVYYCAKGGIYYGSGSYPSWGQGTLVTVSS
VL: B7 VL with A28D, I29V, N31T, S32W, T53S, G89Q, Y92H, P96Q, L104V
B12: scFv G8-P1B03 (scFv, V domains shown)
VH: EVQLLESGGGLVQPGGSLRLSCAASGFTFSDYYMSWVRQAPGKGLEWVSGINWNGGSTGYADSVKGRFTISRDNSKNTLYLQMNSLRAEDTAVYYCARVEQGYDIYYYYYMDVWGKGTTVTVSS
VL: B9 VL with W24R, G28S, A34N, A50K, Q55E, N93S, T94A, W96Y
B13: scFv G8-P1C11 (scFv, V domains shown)
VH: QVQLVQSGAEVKKPGASVKVSCKASGGTLSSYPINWVRQAPGQGLEWMGWISTYSGHADYAQKLQGRVTMTRDTSTSTVYMELSSLRSEDTAVYYCARSYDYGDYLNFDYWGQGTLVTVSS
VL: B9 VL with W24Q, G28D, S31N, A34N, N93S, T94I, W96P, P100G
B14: scFv G8-P1D02 (scFv, V domains shown)
VH: EVQLLESGGGLVQPGGSLRLSCAASGFTFSSYWMSWVRQAPGKGLEWVSSISGRGDNTYYADSVKGRFTISRDNSKNTLYLQMNSLRAEDTAVYYCARASGSGYYYYYGMDVWGQGTTVTVSS
VL: B9 VL with W24Q, G28D, S31N, A34N, N93S, T94A, W96Y, P100G, D105E
B15: scFv G8-P2E06 (scFv, V domains shown)
VH: QVQLVQSGAEVKKPGASVKVSCKASGYTLTTYYMHWVRQAPGQGLEWMGWINPNSGGTNYAQKFQGRVTMTRDTSTSTVYMELSSLRSEDTAVYYCARAVYYDFWSGPFDYWGQGTLVTVSS
VL: B7 VL with A28G, T53S, G89Q, S91A, Y92N, T94F, P96W
B16: scFv R3G8-P5C03 (scFv, V domains shown)
VH: QVQLVQSGAEVKKPGASVKVSCKASGYTFTSYYMHWVRQAPGQGLEWMGWMNPNSGNTGYAQKFQGRVTMTRDTSTSTVYMELSSLRSEDTAVYYCARGLLGFGEFLTYGMDVWGQGTLVTVSS
VL: B7 VL with A28G, S32W, G89Q, S91T, P96W
B17: scFv G8-P1A03 (scFv, V domains shown)
VH: QVQLVQSGAEVKKPGASVKVSCKASGGTFSRSAITWVRQAPGQGLEWMGWINPNSGATNYAQKFQGRVTMTRDTSTSTVYMELSSLRSEDTAVYYCARDDYGDYVAYFQHWGQGTLVTVSS
VL: DIQMTQSPSSLSASVGDRVTITCRASQSITSYLNWYQQKPGKAPKLLIYDASNLETGVPSRFSGSGSGTDFTLTISSLQPEDFATYYCQQNYNSVTFGQGTKLEIK
B18: scFv R3G10-P1E12 (scFv, V domains shown)
VH: QVQLVQSGAEVKKPGASVKVSCKASGYIFTGYYMHWVRQAPGQGLEWMGMIGPSDGSTSYAQKFQGRVTMTRDTSTSTVYMELSSLRSEDTAVYYCAREDDSMDVWGKGTTVTVSS
VL: not shown
B19: scFv R3G10-P4E12 (scFv, V domains shown)
VH: B18 VH with I28T, K63R, D100E, S102G, K108Q
VL: B2 VL with N30S, S31T, N53S, E55Q, T56S, H91Y, N92Y, P96W, K103R
B20: scFv R3G10-P1B07 (scFv, V domains shown)
VH: QVQLVQSGAEVKKPGASVKVSCKASGYTFTSYYMHWVRQAPGQGLEWMGIIHPGGGTTSYAQKFQGRVTMTRDTSTSTVYMELSSLRSEDTAVYYCARDKVYGDGFDPWGQGTLVTVSS
VL: B5 VL with Y49F, A50D, S53R, Y91A, S92E, T93A, Y94F, I96Y, I98F
B21: scFv R3G10-P1F06 (scFv, V domains shown)
VH: B18 VH with I28T, T30I, E99D, D100S, D101S, S102G, M103L, V105P, K108Q, T111L
VL: B7 VL with A28S, S32Y, A34N, A50K, T53S, Q55E, G89Q, S93I, T94I, P96Y
B22: scFv R3G10-P1H08 (scFv, V domains shown)
VH: QVQLVQSGAEVKKPGASVKVSCKASGVTFSTSAISWVRQAPGQGLEWMGWISPYNGNTDYAQMLQGRVTMTRDTSTSTVYMELSSLRSEDTAVYYCARDAHQYYDFWSGYYSGTYYYGMDVWGQGTTVTVSS
VL: B7 VL with A28G, S32Y, A50S, T53N, G89Q, S91A, T94F, P96W, L104V
B23: scFv R3G10-P1A07 (scFv, V domains shown)
VH: EVQLLESGGGLVKPGGSLRLSCAASGFTFSSYWMSWVRQAPGKGLEWVSGISARSGRTYYADSVKGRFTISRDDSKNTLYLQMNSLKTEDTAVYYCARDQDTIFGVVITWFDPWGQGTLVTVSS
VL: B7 VL with A28G, S32Y, T53S, S56G, G89Q, S91Y, Y92F, S93T, P96Y
B24: scFv R3G10-P1H01 (scFv, V domains shown)
VH: B18 VH with I28T, E99G, D100V, D101G, S102N, M103L, V105Y, K108Q, T111L
VL: B7 VL with A28S, S32Y, A34N, T53S, G89H, S91T, P96L, L104V

target: T1, HLA-A*02:01_… (HLA-PEPTIDE target G8), recombinant soluble complex (human, UniProt P04439 25-297 at identity 0.94); P61769 21-119, enzymatically biotinylated (BirA) for screening and functional assays); assay: scFv PPE ELISA
T1 construct: Also crystallised with Fab G8-P1C11

Fold binding to target pHLA over minipool of negative control pHLAs, ≥ 3 fold:
B1
B2
B3
B4
B5
B6
B7
B8
B9
B10
B11
B12
B13
B14
B15
B16
B17

target: HLA-A*01:01_… (HLA-PEPTIDE target G10), recombinant soluble complex (human, UniProt P04439-2 25-297; P61769 21-119, enzymatically biotinylated (BirA) for screening and functional assays); assay: scFv PPE ELISA

Fold binding to target pHLA over minipool of negative control pHLAs, ≥ 3 fold:
B18
B19
B20
B21
B22
B23
B24
